Data on one molecule can be found in publication PMC7062719, “Full-length human GLP-1 receptor structure without orthosteric ligands” (Nature Communications, 2020).

The target of this assay is T1, Human GLP-1R (Arg24-Leu422) fragment (human, UniProt P43220).
T1 construct: GLP-1 receptor, human, residues Arg24-Leu422; N-terminal HA-FLAG-B2-HRV14-3C tags and C-terminal HPC4-HRV14-3C-10x His tags; no 3C cleavage is described; also called detergent solubilized GLP-1R; source: Sf9 insect cells, baculovirus, co-expressed with DNGαs and Gβ1γ2; solubilised in LMNG/CHS, purified as a complex (HPC4 resin, SEC); not shown: HPC4, C-terminal, kept
Briefly: SEC + other: negative stain EM; Fab7F38 added at an estimated 1:1 ratio to the HPC4-purified GLP-1R–semaglutide–Gs–Nb35 complex, SEC on Superose 6 Increase (20 mM HEPES pH 7.5, 100 mM NaCl, 2 mM MgCl2, 1 μM semaglutide, LMNG/CHS), peak fraction used for single-particle 2D class averages. The conditions noted are these: both partners purified.

T1 sequence (P43220 24-422): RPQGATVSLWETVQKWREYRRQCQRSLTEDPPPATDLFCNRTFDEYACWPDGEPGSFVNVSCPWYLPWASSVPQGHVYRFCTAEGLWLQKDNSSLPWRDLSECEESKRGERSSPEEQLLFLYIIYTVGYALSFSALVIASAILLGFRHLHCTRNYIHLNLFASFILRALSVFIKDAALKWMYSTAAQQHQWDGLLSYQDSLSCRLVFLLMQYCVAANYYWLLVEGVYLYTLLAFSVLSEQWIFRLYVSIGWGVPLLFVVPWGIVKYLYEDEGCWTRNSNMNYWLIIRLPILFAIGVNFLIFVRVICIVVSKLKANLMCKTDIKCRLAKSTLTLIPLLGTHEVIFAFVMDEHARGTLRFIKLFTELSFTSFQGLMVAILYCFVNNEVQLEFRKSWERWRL

B1: Fab7F38 (Fab, V domains shown)
VH: EVQLQQSGPELVKPGASVKMSCKAPGYTFTSYVTHWVKQKPGQGLEWIGYINPYNDSPKYNEKYKAKATLTSDKSSSTVYMELSSLTSEDSAVYYCARIGYFRYDEGGNYALDYWGQGTSVTVSS
VL: QIVLTQSPAIMSASPGEKVTISCSASSSVSYMYWYQQKPGSSPKPWIYRTSKLASGVPVRFSGSGSGTSYSLTISNMEAEDAATYYCQQFHTYPWTFGGGTKLEIK
notes: source: ExpiCHO-S cells, transient transfection, purified (Protein G Sepharose, SEC Superdex 75)
On to B1, for which the binding result is given as “binds”.
